Key:
EGFR [1] = target: T1, EGFR (Homo sapiens, UniProt P00533); assay: Co-localization with EGFR by fluorescence microscopy; format: cell-based; design: endogenous in cells; host or cells: CL1-5 and H226 cells; conditions: H226 cells
Description: (§1) Science the downregulation of EGFR by rLZ-8 and GMI may involve an intracellular pathway similar to that induced by EGF-mediated EGFR endocytosis and degradation, we hypothesized that rLZ-8 and GMI could interact with EGFR. The co-locolization of rLZ-8/GMI and EGFR were determined by fluorescence microscopy. […] To further examine the association of rLZ-8 and EGFR, immunoprecipitation assay was performed by anti-EGFR and anti-his-tag (for detecting rLZ-8) antibody.

LLC1 cells = assay: Tumor growth in LLC1 allograft mice; format: in vivo; conditions: vs PBS
Description: Male C57BL/6 (6-8 weeks of age) mice were subcutaneously inoculated with LLC1 cells and randomly divided into two groups. Seven days after implantation, the mice were treated with GMI (5 mg/kg) via i.p. injections at intervals of 4 days. The control group received an equal volume of sterile PBS.
The mice will be weighed and randomly distributed across the different experimental groups (n=5). At day 0, approximately 2×10^5 lung cancer cells suspended in 100 μl serum free DMEM will be subcutaneously (s.c.) implanted into the right flank of all mice for easy observed detection. The mice were sacrificed on the 25th day and the tumors were then excised. […] Tumor size was measured (FIG. 1A) for each mouse using a set of digital calipers at 4 days, and the tumor volume was calculated by the formula L1×L2×H, where L1 is long diameter, L2 is the short diameter and H is the height of the tumor. Representative images of the tumors on the 25th day (FIG. 1B).
We further examined the effect of rLZ-8 on mice with LLC1-allograft in vivo. LLC1 cells were subcutaneously injected into male C57BL6 mice, and the tumor growth rate was assessed over 17 days.

EGFR [2] = target: T1, EGFR; assay: Immunoprecipitation assay with anti-EGFR and anti-his-tag antibody; format: binding; design: After treatment of rLZ-8 in A549; endogenous in cells; host or cells: A549 cells; conditions: A549 cells treated with rLZ-8
Description: as §1

EGFR [3] = target: T1, EGFR; assay: Western blotting to detect expression of EGFR in CL1-5 and H226 cells; format: cell-based; design: endogenous in cells; host or cells: CL1-5 and H226 cells; conditions: 5 μg/ml for CL1-5 and 10 μg/ml for H226, 0-12 h
Description: CL1-5 and H226 cells were incubated with rLZ-8 and GMI (5 μg/ml for CL1-5 and 10 μg/ml for H226) for 0-12 h followed by western blotting to detect expression of EGFR. […] The regulatory mechanisms of ligand-induced EGFR degradation dependent on endocytosis (Hicke L., FASEB J. 1997; 11:1215-26.). To investigate whether rLZ-8-induced EGFR degradation by inducing endocytosis, we performed depletion of clathrin heavy chain experiments in NSCLC cells. Using clathrin heavy chain shRNAs such as #2755 (sh-S1), #2757 (sh-S2) and #7981 (sh-S3), we confirm the efficacy of clathrin shRNAs, and we found (via Western blot analysis) that clathrin knockdown leads to a reduction in the overall protein levels of clathrin in CL1-5 and H226 cells (FIG. 4B). Next, we examined whether the rLZ-8-induced EGFR degradation dependent on clathrin-mediated endocytosis in NSCLC cells.

EGFR [4] = assay: Western blot of EGFR level in H1975 cells; format: cell-based, human
Description: Knocking down of EGFR by EGFR siRNA activated activity of caspase3/7, resulting in apoptosis in gefitinib-resistant H1975 cells (Chen G et al., BMC Med. 2012; 10:28). To investigate the apoptosis, human H1975 cells were seed in 60-mm plat-dish and incubated with rLZ-8 (5 μg/ml) and GMI (10 μg/ml) for 48 hours and 72 hours, respectively.

Molecule	co-localization with EGFR (EGFR [1])	tumor volume (LLC1 cells; LLC1-bearing male C57BL6 mice, rLZ-8 7.5 mg/kg, over 17 days)	tumor weight (LLC1 cells; LLC1-bearing male C57BL6 mice, rLZ-8 7.5 mg/kg)	association with EGFR (immunoprecipitation) (EGFR [2])	EGFR protein levels (EGFR [3])	EGFR level (EGFR [4]; rLZ-8 5 μg/ml, 48 hours)	tumor volume (LLC1 cells; LLC1-bearing male C57BL/6 mice, GMI 5 mg/kg i.p. at intervals of 4 days from day 7, to 25th day)	EGFR level (EGFR [4]; GMI 10 μg/ml, 72 hours)
rLZ-8: his-tagged recombinant fungal immunomodulatory protein LZ-8 from Ganoderma lucidum (SEQ ID NO:5) (protein, listed as Ganoderma lucidum, His tag) MSDTALIFRLAWDVKKLSFDYTPNWGRGNPNNFIDTVTTFPKVLTDKAYTYRVAVSGRNLGVKPSYAVESDGSQKVNFLEYNSGYGIADTNTIQVFVVDPDTNNDFIIAQWN	mainly co-localized on the plasma membrane and formed the punctuate intracellular clusters in the cytoplasm	significantly decreases tumor volume	significantly decreases	present in the immunoprecipitants obtained by the anti-EGFR antibody	significantly suppressed the EGFR protein levels	induced downregulation of EGFR level		
GMI: recombinant immunomodulatory protein derived from Ganoderma microsporum, manufactured by Mycomagic Biotechnology per U.S. Pat. No. 7,601,808 (protein, Ganoderma microsporum (GMI) or a recombinant thereof (reGMI)) EAEAEFMSDTALIFTLAWNVKQLAFDYTPNWGRGRPSSFIDTVTFPTVLTDKAYTYRVVVSGKDLGVRPSYAVESDGSQKINFLEYNSGYGIADTNTIQVYVIDPDTGNNFIVAQWNYLEQKLISEEDLNSAVDHHHHHH					significantly suppressed the EGFR protein levels		significantly decreases tumor volume	induced downregulation of EGFR level

From US9827288B2, “Method for treating a refractory or relapsed lung cancer” (MYCOMAGIC BIOTECHNOLOGY CO., LTD., priority 2015, dated 2017)
